Legend:
[1] = target: T1, human Elongation Factor Like-1 (EFL1) (human, UniProt Q7Z2Z2 1-1120); assay: fluorescence polarisation; fluorescence anisotropy; 2 µL additions of 40-90 µM human EFL1 titrated into 300 µL of 0.1 µM Lumio Green-labelled human SBDS-FlAsH construct; 25 °C; 50 mM Tris-HCl pH 8, 300 mM NaCl, 5 mM β-mercaptoethanol; fitted to a single-site or a two different binding sites model; conditions: both partners purified
T1 construct: human EFL1, GTPase, said to comprise 1120 residues; the expressed protein is fused to a TEV recognition site and a hexahistidine tag at the C-terminus; also called human EFL1; GTPase Elongation Factor Like-1; source: S. cerevisiae BCY123 (pRS426 backbone, GAL1/10 promoter), purified
T1 sequence: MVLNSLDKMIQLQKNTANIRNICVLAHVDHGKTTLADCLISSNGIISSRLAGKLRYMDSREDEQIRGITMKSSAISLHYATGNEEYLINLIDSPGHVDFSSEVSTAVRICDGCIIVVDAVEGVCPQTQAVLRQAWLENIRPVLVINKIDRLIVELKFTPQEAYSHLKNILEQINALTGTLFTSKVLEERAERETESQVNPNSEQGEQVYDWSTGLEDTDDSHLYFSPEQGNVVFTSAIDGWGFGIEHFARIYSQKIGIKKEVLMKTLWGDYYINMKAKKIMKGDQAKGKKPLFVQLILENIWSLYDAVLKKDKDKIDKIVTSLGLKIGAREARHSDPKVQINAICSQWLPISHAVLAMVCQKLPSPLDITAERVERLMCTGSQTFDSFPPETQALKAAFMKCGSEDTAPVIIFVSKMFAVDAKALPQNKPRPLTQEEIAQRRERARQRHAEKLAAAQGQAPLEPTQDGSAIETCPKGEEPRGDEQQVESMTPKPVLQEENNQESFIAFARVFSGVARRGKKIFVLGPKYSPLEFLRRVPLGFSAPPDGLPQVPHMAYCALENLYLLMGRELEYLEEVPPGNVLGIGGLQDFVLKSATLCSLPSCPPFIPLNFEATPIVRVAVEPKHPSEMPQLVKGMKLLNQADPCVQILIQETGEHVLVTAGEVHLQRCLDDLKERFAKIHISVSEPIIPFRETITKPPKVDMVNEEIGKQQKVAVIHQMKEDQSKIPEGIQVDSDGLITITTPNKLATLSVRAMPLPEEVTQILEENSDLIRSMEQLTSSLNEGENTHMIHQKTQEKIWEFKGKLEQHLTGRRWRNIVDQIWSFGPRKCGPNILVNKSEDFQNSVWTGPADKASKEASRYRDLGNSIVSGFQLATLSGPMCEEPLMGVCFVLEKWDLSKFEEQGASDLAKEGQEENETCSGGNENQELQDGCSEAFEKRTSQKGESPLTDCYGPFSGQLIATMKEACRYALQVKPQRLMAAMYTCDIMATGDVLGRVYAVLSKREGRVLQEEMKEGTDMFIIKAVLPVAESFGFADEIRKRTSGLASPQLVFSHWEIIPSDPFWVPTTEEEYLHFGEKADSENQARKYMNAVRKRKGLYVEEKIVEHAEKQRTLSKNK

[2] = target: T2, yeast SBDS orthologue Sdo1 (recombinant, for SAXS) (yeast (S. cerevisiae), UniProt Q07953 1-250); assay: SAXS coupled to on-line size exclusion chromatography; yeast Sdo1, EFL1 and the complex EFL1•Sdo1 at 10, 6.5 and 8 mg/mL injected onto a Shodex KW-403 column; 50 mM Tris pH 8.0, 10% glycerol, 300 mM NaCl, 5 mM MgCl2; conditions: both partners purified
T2 construct: Sdo1, the yeast orthologue of SBDS; called the full-length Sdo1; source: E. coli C41 (pRSET plasmid), purified by conventional chromatographic techniques
T2 sequence (looked up): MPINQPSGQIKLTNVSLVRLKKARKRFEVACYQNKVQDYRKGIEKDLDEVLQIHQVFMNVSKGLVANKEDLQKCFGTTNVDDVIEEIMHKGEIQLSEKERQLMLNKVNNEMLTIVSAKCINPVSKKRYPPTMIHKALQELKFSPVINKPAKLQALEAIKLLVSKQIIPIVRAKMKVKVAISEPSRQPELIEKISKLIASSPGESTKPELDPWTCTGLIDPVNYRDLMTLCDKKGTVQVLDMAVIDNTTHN

Binder	Kd [1]	stoichiometry N [2]
human SBDS domain 1 (residues 1-94) with C-terminal FlAsH tag, labelled with Lumio Green (domain or fragment, UniProt Q9Y3A5 1-94, looked up, Lumio Green dye (4',5'-bis(1,3,2-dithioarsolan-2-yl) fluorescein) on the C-terminal FlAsH tag, human SBDS, domain 1, residues 1-94; also called domain 1 of SBDS; source: E. coli C41 (pRSET plasmid), purified by conventional chromatographic techniques; not shown: FlAsH tag (Cys-Cys-Pro-Gly-Cys-Cys), C-terminal, kept) MSIFTPTNQIRLTNVAVVRMKRAGKRFEIACYKNKVVGWRSGVEKDLDEVLQTHSVFVNVSKGQVAKKEDLISAFGTDDQTEICKQILTKGEVQ	15.2 ± 0.72 µM	
human SBDS domain 2 (residues 94-175) with C-terminal FlAsH tag, labelled with Lumio Green (domain or fragment, UniProt Q9Y3A5 94-175, looked up, Lumio Green dye (4',5'-bis(1,3,2-dithioarsolan-2-yl) fluorescein) on the C-terminal FlAsH tag, human SBDS, domain 2, residues 94-175; also called domain 2 of SBDS; source: E. coli C41 (pRSET plasmid), purified by conventional chromatographic techniques; not shown: FlAsH tag (Cys-Cys-Pro-Gly-Cys-Cys), C-terminal, kept) QVSDKERHTQLEQMFRDIATIVADKCVNPETKRPYTVILIERAMKDIHYSVKTNKSTKQQALEVIKQLKEKMKIERAHMRLR	10.8 ± 0.9 µM	
human SBDS domains 2-3 (residues 94-250) with C-terminal FlAsH tag, labelled with Lumio Green (domain or fragment, UniProt Q9Y3A5 94-250, looked up, Lumio Green dye (4',5'-bis(1,3,2-dithioarsolan-2-yl) fluorescein) on the C-terminal FlAsH tag, human SBDS, domains 2-3, residues 94-250; also called construct consisting of domains 2-3 of SBDS; source: E. coli C41 (pRSET plasmid), purified by conventional chromatographic techniques; not shown: FlAsH tag (Cys-Cys-Pro-Gly-Cys-Cys), C-terminal, kept) QVSDKERHTQLEQMFRDIATIVADKCVNPETKRPYTVILIERAMKDIHYSVKTNKSTKQQALEVIKQLKEKMKIERAHMRLRFILPVNEGKKLKEKLKPLIKVIESEDYGQQLEIVCLIDPGCFREIDELIKKETKGKGSLEVLNLKDVEEGDEKFE	4.6 ± 0.3 µM	
yeast EFL1 (recombinant, for SAXS) (enzyme, yeast (S. cerevisiae), UniProt P53893 1-1110, looked up, yeast EFL1 (GTPase); the model's rigid parts run over residues 1-1110; source: S. cerevisiae BCY123 (pRS426 backbone, GAL1/10 promoter), purified) MPRVESETYKRLQNDPSCIRNICIVAHVDHGKTSLSDSLLASNGIISQRLAGKIRFLDARPDEQLRGITMESSAISLYFRVLRKQEGSDEPLVSEHLVNLIDSPGHIDFSSEVSAASRLCDGAVVLVDVVEGVCSQTVTVLRQCWTEKLKPILVLNKIDRLITELQLTPQEAYIHLSKVIEQVNSVIGSFFANERQLDDLFWREQLEKNENAEYIEKDDSGIYFNPTDNNVIFASAIDGWGFNIGQLAKFYEQKLGAKRENLQKVLWGDFYMDPKTKKIINNKGLKGRSLKPLFTSLILENIWKIYQNIITSRDSEMVEKIAKTLNIKLLARDLRSKDDKQLLRTIMGQWLPVSTAVLLTVIEKLPSPLESQTDRLNTILVSESDTAAMDPRLLKAMKTCDKEGPVSAYVSKMLSIPREELPVESKRIASSDELMERSRKAREEALNAAKHAGMVENMAMMDLNDNSKNTSDLYKRAKDTVMTPEVGEQTKPKPSRNNDVFCVVSEPSSALDLEFEYEGEDDSDSQDNFGLDFVPTDIDPNDPLSSMFEYEEEDPLLESIKQISEDVNDEVDDIFDEKEECLVAFARIYSGTLRVGQEISVLGPKYDPKCPEEHIETAIITHLYLFMGKELVPLDVCPSGNIVGIRGLAGKVLKSGTLIEKGVQGVNLAGVNFHFTPIVRVAVEPANPVEMSKLVRGLKLLDQADPCVHTYVENTGEHILCTAGELHLERCLKDLTERFAGIEITHSEPAIPYRETFLSASDMNPPQNSQLGRGVHELLLSQYKITFRTFPLSGKVTDFLSQHQNSIKNILKTSTSSMDPVIESTGSSFLDKKSLLVAFEEVINQEEKSRELLSGFKVKLAGFGPSRVGCNILLSQDNLLGSLFEGTPAAFEYSDSIKNGFQLAVSEGPLANEPVQGMCVLVESVHKMSQDEIESIEDPRYQQHIVDLSGRLITSTRDAIHEAFLDWSPRIMWAIYSCDIQTSVDVLGKVYAVILQRHGKIISEEMKEGTPFFQIEAHVPVVEAFGLSEDIRKRTSGAAQPQLVFSGFECIDLDPFWVPTTEEELEELGDTADRENIARKHMNAIRRRKGLFIEEKVVENAEKQRTLKKN		1

— publication PMC6321010, “Interaction of the GTPase Elongation Factor Like-1 with the Shwachman-Diamond Syndrome Protein and Its Missense Mutations” (International Journal of Molecular Sciences, 2018)
